Source: PMC6973334
Several values for one entry are separate records, joined by “and”; a condition that tells them apart may be missing. Equal entries are not always repeated. Where two headings read alike, the source gives them in different places.

Key:
[1] = biological target: LINGO-1 ectodomain (free ectodomain made from LINGO-1-Fc by limited proteolysis with chymotrypsin) (Homo sapiens); assay: SEC
[2] = biological target: LINGO-1 ectodomain (free ectodomain made from LINGO-1-Fc by limited proteolysis with chymotrypsin) (Homo sapiens); assay: SEC-MALS
[3] = biological target: LINGO-1 ectodomain (free ectodomain made from LINGO-1-Fc by limited proteolysis with chymotrypsin) (Homo sapiens); assay: SEC-MALS; remark: listed apart in the source

Chain of LINGO-1 ectodomain (free ectodomain made from LINGO-1-Fc by limited proteolysis with chymotrypsin) (Homo sapiens) (Q96FE5 42-561): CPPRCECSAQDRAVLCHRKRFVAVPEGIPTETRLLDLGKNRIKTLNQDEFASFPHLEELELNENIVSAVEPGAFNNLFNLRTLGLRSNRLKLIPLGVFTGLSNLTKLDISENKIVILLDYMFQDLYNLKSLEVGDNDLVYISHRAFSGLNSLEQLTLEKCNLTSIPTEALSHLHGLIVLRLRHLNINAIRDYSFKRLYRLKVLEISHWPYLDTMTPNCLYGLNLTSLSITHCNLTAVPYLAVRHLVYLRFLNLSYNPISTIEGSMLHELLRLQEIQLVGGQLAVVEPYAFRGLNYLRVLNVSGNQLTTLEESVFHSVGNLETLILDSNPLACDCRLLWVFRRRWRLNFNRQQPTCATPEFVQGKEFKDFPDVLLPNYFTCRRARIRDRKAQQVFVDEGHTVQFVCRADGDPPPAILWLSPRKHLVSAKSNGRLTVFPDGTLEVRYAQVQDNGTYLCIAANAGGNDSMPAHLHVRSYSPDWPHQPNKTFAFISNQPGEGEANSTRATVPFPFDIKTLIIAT

Li81 R18S/R54T mAb (antibody)
reduction of the concatemer peaks [1]: 50%

Li81 R18S/S31R mAb (antibody)
reduction of the concatemer peaks [1]: 25%

Li81 R18S/S31R/R54T mAb (antibody)
stoichiometry N (LINGO-1 per mAb) [2]: 2 and 1 | stoichiometry N (LINGO-1 per mAb) [3]: 2
